For one data set, the target named is T1, UGT92K1 (Ginkgo biloba, UniProt A0A2Z2PC79).
T1 construct: gene UGT7
T1 sequence (A0A2Z2PC79 1-496): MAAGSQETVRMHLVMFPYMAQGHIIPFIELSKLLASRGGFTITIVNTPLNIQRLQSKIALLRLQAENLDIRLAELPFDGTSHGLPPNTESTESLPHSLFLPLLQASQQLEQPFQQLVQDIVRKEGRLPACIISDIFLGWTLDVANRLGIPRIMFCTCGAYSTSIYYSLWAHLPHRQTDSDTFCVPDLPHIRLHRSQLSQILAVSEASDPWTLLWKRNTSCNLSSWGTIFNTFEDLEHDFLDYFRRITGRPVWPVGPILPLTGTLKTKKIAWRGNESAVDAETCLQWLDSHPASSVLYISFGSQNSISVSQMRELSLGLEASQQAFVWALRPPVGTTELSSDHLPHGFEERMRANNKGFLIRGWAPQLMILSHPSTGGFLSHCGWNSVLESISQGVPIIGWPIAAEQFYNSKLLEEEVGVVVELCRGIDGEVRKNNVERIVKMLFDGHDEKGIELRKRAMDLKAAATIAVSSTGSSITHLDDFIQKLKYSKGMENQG
Nature of the data set: HPLC glucosylation assay, product identified with authentic standard. The note with it: 100 μM substrate; 4 mM UDP-glucose; Tris-HCl pH 7.0; 30°C; product genistein 7-O-glucoside. In kind it is biochemical.

Substrate in data set [1]: O=c1cc(-c2ccc(O)cc2)oc2cc(O)cc(O)c12
Nature of the data set: purified protein. The note with it: 4 mM UDP-glucose, Tris-HCl pH 7.0, 30°C.

Substrate in data set [2]: COC(=O)c1cc(O)c(O)c(O)c1
Nature of the data set: purified protein. Format: biochemical, Ginkgo biloba. As to conditions: 4 mM UDP-glucose, Tris-HCl pH 7.0, 30°C.

Substrate in data set [3]: O=C(O[C@@H]1Cc2c(O)cc(O)cc2O[C@@H]1c1cc(O)c(O)c(O)c1)c1cc(O)c(O)c(O)c1
Nature of the data set: purified protein. Format: biochemical, Ginkgo biloba. As to conditions: 4 mM UDP-glucose, Tris-HCl pH 7.0, 30°C.

Substrate in data set [4]: O=C(O[C@@H]1Cc2c(O)cc(O)cc2O[C@H]1c1cc(O)c(O)c(O)c1)c1cc(O)c(O)c(O)c1
Nature of the data set: purified protein. Format: biochemical, Ginkgo biloba. As to conditions: 4 mM UDP-glucose, Tris-HCl pH 7.0, 30°C.

Substrate in data set [5]: O=C(O[C@@H]1Cc2c(O)cc(O)cc2O[C@H]1c1ccc(O)c(O)c1)c1cc(O)c(O)c(O)c1
Nature of the data set: purified protein. Format: biochemical, Ginkgo biloba. As to conditions: 4 mM UDP-glucose, Tris-HCl pH 7.0, 30°C.

Substrate in data set [6]: O=c1c(-c2ccc(O)cc2)coc2cc(O)cc(O)c12
Nature of the data set: purified protein. In kind it is biochemical, Ginkgo biloba. The note with it: 4 mM UDP-glucose, Tris-HCl pH 7.0, 30°C.

Substrate in data set [7]: O=c1c(O)c(-c2ccc(O)c(O)c2)oc2cc(O)cc(O)c12
Nature of the data set: purified protein. Format: biochemical, Ginkgo biloba. As to conditions: 4 mM UDP-glucose, Tris-HCl pH 7.0, 30°C.

Substrate in data set [8]: O=c1cc(-c2ccc(O)c(O)c2)oc2cc(O)cc(O)c12
Nature of the data set: purified protein. In kind it is biochemical, Ginkgo biloba. The note with it: 4 mM UDP-glucose, Tris-HCl pH 7.0, 30°C.

With `O=c1c(-c2ccc(O)cc2)coc2cc(O)cc(O)c12` [genistein], the “HPLC glucosylation assay, product identified with authentic standard” value on UGT92K1 is given as “recombinant UGT92K1 protein only displayed activity toward genistein”.

B1: UGT716A1 (Ginkgo biloba) (protein)
chain: MEMAGGYIMVVPFHGQGHVFPCLELCKQLAARGVAVTIVASRSIRSSLQSIANHDASGLGVRIMELREATSEEQDAHPGPFLTDTLQEPFEEMLNNLAAEAAPLPLCVIGDVMVGWVTTVCDKFHIPRVPFFTSSACSIAFEYALWKHRPLDLKEDEAFAVPGFPESMPIALSDTLHRAPHPPDHHQRNPPPFPRRGHPPPPDRGHPPPFGHGGPPHGPPHPPTGPDSNPRSPPWMNGLNESSGFLVNTCRELEAPFIEYMVKETEKPVWAVGPLLPSSFWEGSITHDSSFRSRKSNIDEKQCLEWLNSKPPASVLYVSFGSEVGPSEEEIRELAYGLEAAQKPFIWVLQAGHHHPHHQEEAEEQDLLPAGFEHRLEGRGLIIRGWAPQLLILSHPSTGGFLSHCGWNSTVESIGHGVPLLAWPIRGDQHYNAKLLVAELKVAAMIHMPKDDGMVRREEIAKGVDVLLGSEHGEKLRERAVSLKLRLASCSGSSQKMLDAFVVHLSSLQKKL
As for B1, the Km was 230 µM in the data set “purified protein [1]”; 390 µM in “purified protein [2]”; 43 µM in “purified protein [3]”; 3.2 µM in the data set “purified protein [4]”; 14 µM in the data set “purified protein [5]”; 310 µM in “purified protein [6]”. In addition, the results for the Km in “purified protein [7]” and in “purified protein [8]” were 10 µM and 28 µM, respectively.

Usually Km stands for the concentration of substrate that gives half-maximal velocity.

Values taken from publication PMC5725826, “Characterization of UGT716A1 as a Multi-substrate UDP:Flavonoid Glucosyltransferase Gene in Ginkgo biloba” (Frontiers in Plant Science, 2017).
